The target in the assay is P8 carrier peptide (Influenza H5N1). The assay is described as follows: AUC.

A word on the stoichiometry N: it is the number of molecules, sites or subunits per partner or assembly. P8 carrier peptide displayed a percent of the peptide as trimers of 70% and a stoichiometry N of 3.

The values are drawn from publication PMC6642127.
